Experimental data: article PMC12708648 (2025)

T1: NS3-GST (rice stripe virus (RSV))
T1 chain: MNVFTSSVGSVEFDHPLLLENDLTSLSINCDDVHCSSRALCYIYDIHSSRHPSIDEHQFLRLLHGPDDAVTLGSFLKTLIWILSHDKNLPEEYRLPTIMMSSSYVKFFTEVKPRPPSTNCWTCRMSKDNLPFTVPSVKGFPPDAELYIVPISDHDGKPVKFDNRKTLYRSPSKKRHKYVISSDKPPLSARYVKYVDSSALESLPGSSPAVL

T2: CP-GST (rice stripe virus (RSV), UniProt P68559 1-322)
T2 chain: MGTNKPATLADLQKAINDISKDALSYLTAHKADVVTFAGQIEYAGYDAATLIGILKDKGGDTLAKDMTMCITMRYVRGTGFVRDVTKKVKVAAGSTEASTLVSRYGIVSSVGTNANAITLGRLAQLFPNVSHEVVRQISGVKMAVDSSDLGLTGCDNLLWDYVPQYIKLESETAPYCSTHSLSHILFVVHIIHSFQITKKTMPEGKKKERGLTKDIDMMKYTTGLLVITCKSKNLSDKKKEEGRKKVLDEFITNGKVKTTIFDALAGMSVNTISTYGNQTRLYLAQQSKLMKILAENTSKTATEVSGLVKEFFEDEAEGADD


Columns and labels:
NS3-GST = molecular target: T1, NS3-GST; experiment: MST
CP-GST = molecular target: T2, CP-GST; experiment: MST

Row | Binder | Kd (NS3-GST) [nM] | Kd (CP-GST) [nM]
1 | OsVIRK1C-His (domain or fragment, labelling dye (NanoTemper) in the MST assay) LCKRNRKPHKHMMIGSVDLGDEDEMRGSESLLYDLSTLRAATANFSEENKLGEGGFGPVYKGTLQNGQEIAVKRLSATSHQGQLEMKNEVVLVAKLQHKNLVRLLGCCIEEREKILVYEFLCNKSLDTILFDTSRQQDLNWEQRFKIIEGIGRGLLYLHEDSRLKIIHRDLKASNILLDVDMNPKISDFGLAKLFNMEASVANTSRIAGTYGYMAPEYALHGIFSAKSDVFSYGVLLLEIVTGRRNTCLHDSEDLLAFVWRHWSRGGAGELLDGCPAAGRRPQELLRCIHVGLLCVQEDPQLRPGMAAVVVMLNSRSVTLPAPSAPAFVSASRGIGGSPPPAAAAGDAPARSTDHEVPTAAR | 4250 | 704
2 | OsVIRK1N-His (domain or fragment, labelling dye (NanoTemper) in the MST assay) MAPPPPSPPCRPRVKPERALLCFSLLLLLTATTANASITDCPTTSSTNSSHVDDGAFGANLRALLSSLSAAAAASSSGFAENATGAAPDTAYGLAQCRGGIVGGGNGTSCRSCLDDSVRDAAKACPGEKSAVIISDYCLVRYSNASFAGAADERTVKLWWNTDNATQPERFKSLLGTLMGNLTDAAARASSPLMFAAGETDLPPFTKIYGMAQCTRDLAAGDCYRCLVGAVNNIPKCCDGKQGGQVITRSCSIRFEVYPFFDA | 5200 | 1300
